Legend:
EGVD/AE-ACT = assay: reaction of the protease with the serpin bait EGVD/AE-ACT
[1] = target: alpha-2-marcroglobin (A2M) (UniProt P01023); assay: inhibition of the protease by the plasma inhibitor
Chain of alpha-2-marcroglobin (A2M) (P01023 24-1474): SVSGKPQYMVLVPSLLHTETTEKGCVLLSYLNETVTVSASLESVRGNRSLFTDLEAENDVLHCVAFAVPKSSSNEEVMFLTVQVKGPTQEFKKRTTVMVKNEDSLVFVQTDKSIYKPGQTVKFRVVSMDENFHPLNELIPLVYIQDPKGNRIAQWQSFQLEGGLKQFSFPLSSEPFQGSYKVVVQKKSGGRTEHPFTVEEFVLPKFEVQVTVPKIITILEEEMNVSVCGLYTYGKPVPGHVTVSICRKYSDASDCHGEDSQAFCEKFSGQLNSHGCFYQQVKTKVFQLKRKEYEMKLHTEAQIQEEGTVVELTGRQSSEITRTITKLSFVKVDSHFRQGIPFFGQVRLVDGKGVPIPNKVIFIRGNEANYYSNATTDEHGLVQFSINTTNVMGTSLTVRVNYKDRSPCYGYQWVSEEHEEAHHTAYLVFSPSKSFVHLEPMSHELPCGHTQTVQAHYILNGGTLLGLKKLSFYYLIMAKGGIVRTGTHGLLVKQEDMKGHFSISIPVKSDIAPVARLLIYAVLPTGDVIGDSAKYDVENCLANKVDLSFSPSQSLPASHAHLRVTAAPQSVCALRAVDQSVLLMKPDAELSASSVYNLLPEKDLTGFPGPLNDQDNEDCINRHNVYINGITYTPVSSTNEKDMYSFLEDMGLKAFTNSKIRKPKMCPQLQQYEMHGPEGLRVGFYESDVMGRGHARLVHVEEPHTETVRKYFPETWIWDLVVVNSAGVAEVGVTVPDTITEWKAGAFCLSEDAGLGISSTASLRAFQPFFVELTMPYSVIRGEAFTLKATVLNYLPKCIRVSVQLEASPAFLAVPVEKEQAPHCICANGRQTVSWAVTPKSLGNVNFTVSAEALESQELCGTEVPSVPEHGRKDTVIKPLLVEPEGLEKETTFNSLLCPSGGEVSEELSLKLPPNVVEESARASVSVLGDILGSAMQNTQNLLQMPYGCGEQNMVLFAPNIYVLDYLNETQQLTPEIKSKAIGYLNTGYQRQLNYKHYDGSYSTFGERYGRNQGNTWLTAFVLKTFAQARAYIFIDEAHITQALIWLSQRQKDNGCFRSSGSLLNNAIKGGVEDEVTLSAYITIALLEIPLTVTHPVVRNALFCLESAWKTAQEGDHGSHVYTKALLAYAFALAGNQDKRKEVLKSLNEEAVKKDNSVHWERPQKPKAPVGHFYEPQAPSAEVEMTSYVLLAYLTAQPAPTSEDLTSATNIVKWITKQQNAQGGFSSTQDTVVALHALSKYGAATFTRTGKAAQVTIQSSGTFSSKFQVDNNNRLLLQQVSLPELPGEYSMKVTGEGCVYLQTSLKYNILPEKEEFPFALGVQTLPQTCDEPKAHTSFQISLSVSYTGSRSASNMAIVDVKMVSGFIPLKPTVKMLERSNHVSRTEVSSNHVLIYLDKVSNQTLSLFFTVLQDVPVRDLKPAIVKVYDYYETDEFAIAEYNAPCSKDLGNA

Binder	kapp [1] [M⁻¹ s⁻¹]	k*app (second order rate constant) (EGVD/AE-ACT)
chymase C22S/F41V/L99W/G151L/F173K/R217S/A226R (enzyme) IIGGTESKPHSRPYMAYLEIVTSNGPSKVCGGFLIRRNFVLTAAHCAGRSITVTLGAHNITEEEDTWQKLEVIKQFRHPKYNTSTWHHDIMLLKLKEKASLTLAVGTLPFPSQFNFVPPGRMCRVAGWGRTGVLKPLSDTLQEVKLRLMDPQACSHKRDFDHNLQLCVGNPRKTKSAFKGDSGGPLLCAGVAQGIVSYGSSDAKPPRVFTRISHYRPWINQILQAN	329	1360
chymase C22S/F173Y/D175N/A226R (enzyme) IIGGTESKPHSRPYMAYLEIVTSNGPSKFCGGFLIRRNFVLTAAHCAGRSITVTLGAHNITEEEDTWQKLEVIKQFRHPKYNTSTLHHDIMLLKLKEKASLTLAVGTLPFPSQFNFVPPGRMCRVAGWGRTGVLKPGSDTLQEVKLRLMDPQACSHYRNFDHNLQLCVGNPRKTKSAFKGDSGGPLLCAGVAQGIVSYGRSDAKPPRVFTRISHYRPWINQILQAN	645	–
chymase C22S/A226R (enzyme) IIGGTESKPHSRPYMAYLEIVTSNGPSKFCGGFLIRRNFVLTAAHCAGRSITVTLGAHNITEEEDTWQKLEVIKQFRHPKYNTSTLHHDIMLLKLKEKASLTLAVGTLPFPSQFNFVPPGRMCRVAGWGRTGVLKPGSDTLQEVKLRLMDPQACSHFRDFDHNLQLCVGNPRKTKSAFKGDSGGPLLCAGVAQGIVSYGRSDAKPPRVFTRISHYRPWINQILQAN	812	77

Now from value to binder, other results behind:

kapp [1] [M⁻¹ s⁻¹]	Binder	k*app (second order rate constant) (EGVD/AE-ACT)
356	chymase C22S/L99H/F173Y/K192R/S218L/A226R (enzyme) IIGGTESKPHSRPYMAYLEIVTSNGPSKFCGGFLIRRNFVLTAAHCAGRSITVTLGAHNITEEEDTWQKLEVIKQFRHPKYNTSTHHHDIMLLKLKEKASLTLAVGTLPFPSQFNFVPPGRMCRVAGWGRTGVLKPGSDTLQEVKLRLMDPQACSHYRDFDHNLQLCVGNPRKTKSAFRGDSGGPLLCAGVAQGIVSYGRLDAKPPRVFTRISHYRPWINQILQAN	–
3130	chymase C22S/L99Y/F173Y/K192R/S218L/A226R (enzyme) IIGGTESKPHSRPYMAYLEIVTSNGPSKFCGGFLIRRNFVLTAAHCAGRSITVTLGAHNITEEEDTWQKLEVIKQFRHPKYNTSTYHHDIMLLKLKEKASLTLAVGTLPFPSQFNFVPPGRMCRVAGWGRTGVLKPGSDTLQEVKLRLMDPQACSHYRDFDHNLQLCVGNPRKTKSAFRGDSGGPLLCAGVAQGIVSYGRLDAKPPRVFTRISHYRPWINQILQAN	–

— US20240117334A1, “FACTOR B PROTEASES” (Vertex Pharmaceuticals Incorporated, priority 2021, published 2024)
